assay: soluble on expression in E. coli; label from the status in PepcDB or PDB records

Sequence	soluble on expression in E. coli
METEIKRTSTKDIIAYLTEKFPECFSIKGPVKPLKIGIFQDLAEKLDDDETVSKTRLRQALRHYTSSWRYLKVIKVGNSRVDVDGKDVAEIDEDQAAYASKTLKESQEKFGNKKATDNDAKKPYKGKQGSTEAANNKPADKKRESTKFKTVKSTPKKTVKKEVEPLKSVESTTINVGSKVRVQLGNSPMKATITEISGKDISVQLDSGMVIKTQLQNIYL	not soluble
METFGVFHKEDDEQMDLPPGFRFHPTDEELITHYLHKKVLDLGFSAKAIGEVDLNKAEPWELPYKAKIGEKEWYFFCVRDRKYPTGLRTNRATQAGYWKATGKDKEIFRGKSLVGMKKTLVFYRGRAPKGQKTNWVMHEYRLDGKLSAHNLPKTAKNEWVICRVFHKTAGGKKIPISTLIRIGSYGTGSSLPPLTDSSPYNDKTKTEPVYVPCFSNQAETRGTILNCFSNPSLSSIQPDFLQMIPLYQPQSLNISESSNPVLTQEQSVLQAMMENNRRQNFKTLSISQETGVSNTDNSSVFEFGRKRFDHQEVPSPSSGPVDLEPFWNY	soluble
METGAGIGLYPLHRCKTIYLVRHAQGIHNVDGEKNYKAYMSHDYFDAELTQLGWKQVDSLRKHVHSSGLHKKIELVISSPLMRTLQTAVGVFGGEGYTDMSDVLPLMVANAGNSSRAAISSLNCPPVITEESCREHLGVHPCDQRRSISDYQFLFPAVDFSLIESEEDKLWKADVRETIEELAARGKKFLNWLWTRKEKEIAIVTHSGFLFHTLNALQNECHPDVKKEICGHFANCELRSMVIVDRSMLGSDSSVTDYPGKIPKGIDLPSDAVVDDNNIKVE	soluble
METGTPLIAETIALTEKKVAMALDDIIKLAKRKTNVNKGKKPRREKNKNQNFNGAARNNTSNVRHHMNSLSAVRQGAVGKRRSRFQGIQFPVTTNIARKASTAAPLDFRGRAFNGGRMTSANQSRLIAPPVQNISVQARVNAKRHEVDQKVEHRGGKRKTLDSRFASMKEQRMTINNYGVTVQVPRLPPWVRARRFSQ	not soluble
METKKIAGVLVTMVAPFENHMANGGEKLFGNASSIKRRPDGRVYVSGQMQRHVLFSAIDRLNHLDKAKGTTFVSNGDGITNLIEIDLRADLGGFMHTNKGDYSDRRIAPLSVTPATALDTSSVGRDLLVRIRFDKSSDAKNQALATREYSEQDKMNMNFFLDITSVGVSKSFVYKDGLNLGTKYFKHITDDEKKRRVKLFLEATRIMNDYANQARNAVCGEPEKVLIVFDDRLSRKACRYYTVGEKEQANIIKELDQYQVKYFVGDDASDYSVADAYRDAMNYLDKATLVDFAEGEEIMTFAEAFECKEKEPQEKKSKKGKDKATSAQNLFAEQQDDQ	not soluble
METMKSKANCAQNPNCNIMIFHPTKEEFNDFDKYIAYMESQGAHRAGLAKIIPPKEWKARETYDNISEILIATPLQQVASGRAGVFTQYHKKKKAMTVGEYRHLANSKKYQTPPHQNFEDLERKYWKNRIYNSPIYGADISGSLFDENTKQWNLGHLGTIQDLLEKECGVVIEGVNTPYLYFGMWKTTFAWHTEDMDLYSINYLHLGEPKTWYVVPPEHGQRLERLARELFPGSSRGCGAFLRHKVALISPTVLKENGIPFNRITQEAGEFMVTFPYGYHAGFNHGFNCAEAINFATPRWIDYGKMASQCSCGEARVTFSMDAFVRILQPERYDLWKRGQDRAVVDHMEPRVPA	soluble
METPETRFCKESKVVKTSRVFPLDTNNHNTLFGGKLMSYIDDIASISAARHCRRETVTASMDSVDFLKPIGQKDSVCLESYVTWVGTSSMEVFVKVIKEHLMTGERELAATSFLTFVALDSNGKPVPVPRVVPETEEEIMLHNTAVQRANERKNRKRHSQALANALGTDKPWVNVKPKTLEHHHHHH	not soluble
METQIHQLEQEAYTAVLRAFKAQSDAISWEKESLITELRKELRVSDDEHRELLSRVNKDDTIQRIRDWRQGGASQITRHATIQPFDVLPSPTFSAARKKQKTFPSYNPSIGATGNRSFNNRLVSSGISGNESAEALIGRKVWTKWPEDNHFYEAIITQYNADEGRHALVYDIHAANETWEWVDLKEIPPEDIRWDGEESGVALNIGHGSASFRGNRRGQIHGGRGRGPRIHQPRRELVPPPTQQNGSGGRRTSSDDIELFNTDSLVKEVERVFDSTHPDPLELDKAKKMLKEHEQALIAAIARLADTSDGEMDGDPPYSHDHPMPQG	not soluble
METTSVFRADFLSELDAPAQAGTESAVSGVEGLPPGSALLVVKRGPNAGSRFLLDQAITSAGRHPDSDIFLDDVTVSRRHAEFRLENNEFNVVDVGSLNGTYVNREPVDSAVLANGDEVQIGKFRLVFLTGPKQGEDLEHHHHHH	not soluble
METTWDLTPLFPGLESPEFQRAWEGLKGRIGELKGLLEREAPLPEVLAALDAFLEEATPLRAYLYARYSADTRDEAALAKLSELEILFLDFQRLRPRLTRYLALKDPEEAGPHRLLVEEAKEEALHMMPEGEEVLAAELSLSGRAAWDKLHESLTSQITAVVDGEEMPITKVRNLYFHPEEEVRKKAYEAELKAWEAHEVPLAFALNGVKGEASVLNRRRGYRDDLEPTLHENRITRKALKAMQEAVGESLPLFRRYFLLKARALGKERLDWWDLFAPLGRGRRWSLEEARAFIPAKLAALVPNAAKVAEMAFHERWMDLLPRKGKVGGAYCMARGGGKSLILANYEESFESVSTLAHELGHAYHNFALKEAPASLRRVPMTLAETASIMNETLVVEAALKEASPEEGLLILDAYLQGAAQVVVDIHSRFLFESWVFQRRKARELSPREFKELMLKAQEEAYGEALATRHPYMWAVKGHYYGADFYNYPYTFGLLFGLAVYQEAKEDPGFAGRYEALLAESGRYRAKELALRFGFDLESVDFWRRGIRVLEEKVAQLERMISP	soluble
MEVDPGSDDVEADRETRAQKLKLKRNVKFRAQMRRFDEYCGVTNLTVDDLNWPLISGIPLQRQRLTGATYYDDSLLDQNPWDEFSIDRFLEITSIQLITAGAGYERNDEITRFVFQRTMKTIVTYCNFMYDLARRNGKVQITRFELQDLIHRDEFRFYMYFRQFLPNPDPNCTAFSNHYTSLLHTLYFNIPGMPQFWNNSQMYNYAATRGQRLVQNIAAFYPPEYFWNEDESKYHTTFVVPRGTEFSKFYARRFHEALGMPPLENEIITVLDWLAKLCILEIVYHTTIWCDITGFGGLPRIEHYRLAMENVEDIIFDLAIDDFSISRLQLQISPFEISRYSPLDVSGYYETIKRKKDIEEYQNRFYEVHYSDDVRIMNVYATDCSRKR	not soluble
MEVLGITEKALNYYRENVKDNKTITPDQALLKMIRNVLLVKETHPERVKKRLFCTEYAYGNMIIKVNRKKQVFEIVNKSGCFSDQNDWKFPKRRYIELSKELGIKDCKFRKITYSKKNHNKQKLEHHHHHH	soluble
MEYRIERDTMGEVRVPADKYWGAQTQRSLENFRIGTDRFRMPLEIIRAYGMLKKAAARANLELGELPEEIAKAIIQAAEEVVQGKWDDHFPLVVFQTGSGTQTNMNVNEVIANRASEILGKPLGSKYVHPNDHVNRGQSSNDTFPTAMYVAVALALHQRLYPAVEGLIRTFTAKAQAFDQIVKVGRTHLMDAVPITLGQEIGSWAAQLKTTLAAVKEMEKGLYNLAIGGTAVGTGLNAHPRFGELVAKYLAEETGLPFRVAENRFAALAAHDELVNVMGAIRTLAGALMKIGNDVRWLASGPYAGIGEITIPANEPGSSIMPGKVNPTQVEALTMVVVRVYGNDHTVAFAGSQGNFQLNVYKPVMAYSTLESINLLADAVASFDAHLAQGIEPNLERIEEHLQKNPMLATALNKAIGYDKAAEIVKKALKEKKTLKQAALELGYLTEEEFDRIVVPMRLAKPHEGA	soluble
MEYRLFGQVTRALMDASQAPADDIATRIDALDWNRKVWSALATDCALPENQLPMELRASIISLSLWVGRHSSAVMRKEEDFEPLIEINRMIMQGLAGRADAA	not soluble
MFALVLFVCYLDGGCEDIVVDVYNTEQQCLYSMSDQRIRQGGCFPIEDFIDGFWRPAQEYGDFLEHHHHHH	soluble
MFEIATTPMATTVVISGDLDLASRDQFLEVAARLTSLRRSLLTIDMCDVRFMDSTGAAFLISLAETGQRRGWLTVLRGSSDAHRFVLDICGATHLFRFDTEHYCHHTASPA	not soluble
MFEKWIGLTLLLNSLAYPCQKVTISFKQYENLLHIHQKGCDNEVMCRTLISIALLESSLGLNNRREKSLKDTSYSMFHITLNTAKKFYPTYSKTLLKFKLLNDVGFAIQLAKQILKENFDYYKQKHPNKSVYQLVEMAIGAYNGGMKHNPNGAYVKKFRCIYSQVRYNE	not soluble
MFFIKDLSLNITLHPSFFGPRMKQYLKTKLLEEVEGSCTGKFGYILCVLDYDNIDIQRGRILPTDGSAEFNVKYRAVVFKPFKGEVVDGTVVSCSQHGFEVQVGPMKVFVTKHLMPQDLTFNAGSNPPSYQSSEDVITIKSRIRVKIEGCISQVSSIHAIGSIKEDYLGAI	soluble
MFFMYFTNYGYRLNQIKKGSDQHWLFLPGGPGLGSEYLASFCDKLTLQGTVSLVDFPKDGNNSEGQLDFVSWQEGLISLLKSLNKPILVTHSFSGMFTLNFPEIENHLSGLVLMNTTTTNSFFQHVNEMRQKHNLPDLVPAASQYHLYPSNETYKKFWDTYKHYCFTQEELPIGEQMMELFAYNNESYHYAIEHFYNDFHYKWHPQTIPTMTIASELDYICPPAIFIQDKNFQCQNVINKVIYKAGHCPWILHLEQVQKCFDEFSGMIQEINIERIL	not soluble
MFGGGSSGPVDTTLYTTLNVRPDASQADIKKSYFKLAKEYHPDKNPDHGDKFKEISFAYEVLSSPEKRRLYDARGLEGVQGGGAGGGGGGFPGGLFSHFFGGAGGDDDDDDDDMGGHPFGGLFGGMGGMGRGGPRRRKFQDTVHPLNVTLEELYVGKTSKLKLSKKALCKTCEGSGGKKGEKYKCDACRGRGVKTIVQQIGPGMLQQMQVHCDACKGSGGKVPAGDKCKGCHGEKYENVSKILEVHVLPGMKHNDKITFKGDGDQSDPDGEPGDVVIVIQQKDHDIFKRDGDDLHMTKKLSLNEALCGYNFLIKHLDGHPLVLSSKQGDVIKPGVIRGVLGKGMPNKKYPELKGNLFVEFEVEFPKEHFLDDEKAYAVLKSCFPTSKVVNVTPAAAEVSLMEYDEKKYSRGRGGDAYNEDSDEEQHGGHHGQGVRCQHQ	not soluble
MFIEVEKFVEARTNSIAQLLKAIDNDALVSGEVTKGPRTAAQRLPRHMRRRAMAYDIRRFPRTMREFAAAHLISKHAKKCPSRFARRKSANSRTKFGRSTSTKGIWLSTHVWHAKRFRMIQKWGFKLADRSFQRGFRAVLRDSNKNCVIRDRSYYTCVTIQCTDAYSKISQFSQKGCRGQSSRDEEEECHQLYMPGKYPFGYIGPARFQRLSGDKVHIWIHPSSKLQFMKALLEYYNLEKQENTEEDLYKNSEIKVSIDAENICRFHLSGPKCLSKLRDSIRFVNDEKFSSEHNYFLSVSDSVFQSSRDGEVINLLIEDPRTTWDRKTVLKHKKVNKEADNERIRVSKFWNKEFREMAIEKRMADSEFHKQNSSKINGVISTEAKVPIILIIRNEGLKALDGADILIPEPFAKDFWVSLQRRGVRASGLRDEYAAHLESKALYYPLDDVGSEAGRESELAMKKELIEKYLGKPHNRRCKHWSAVSVKYPFEFKWDELSQDWNLSNKPRSEAFVCRDLQKLRIIEEAMKKGSGLEEFQEPGMLIPVKLQFFGRGRPKKYGMVCLPTDDDLISIRKNRNREIIQTPPEASSQDSDIVEAMEIEEITVKKNQGFMSLEAAASEKPINLKLLFEETTKLDDKTTKRKRVNRKKRESKKRRKIEQEKRKEEAEVEEVQKLATKYRFSANREIIGRLVAGEQSVLAGHGVGIGYICANTLSLIASNYHKSKTVVMVRNSTSKYYHPAYVTILKNATKI	not soluble
MFITFEGIDGSGKSTQIQLLAQYLEKRGKKVILKREPGGTETGEKIRKILLEEEVTPKAELFLFLASRNLLVTEIKQYLSEGYAVLLDRYTDSSVAYQGFGRNLGKEIVEELNDFATDGLIPDLTFYIDVDVETALKRKGELNRFEKREFLERVREGYLVLAREHPERIVVLDGKRSIEEIHRDVVREVKRRWKLDV	soluble

Reference: the DeepSol protein solubility set
